Residue numbers refer to the chain shown, from its start. Numbers in names are those of the source. Read-outs that look alike come from different tables or passages of the source.
Key:
SEC [1] = molecular target: the molecule itself; experiment: SEC
SEC [2] = molecular target: the molecule itself; experiment: SEC; remark: listed apart in the source
SEC [3] = molecular target: the molecule itself; experiment: SEC; remark: listed apart in the source
crystal structure = molecular target: the molecule itself; experiment: crystal structure

B1: KcsA W67F channel (natural protein, UniProt P0A334 1-125, looked up)
chain: MPPMLSGLLARLVKLLLGRHGSALHWRAAGAATVLLVIVLLAGSYLAVLAERGAPGAQLITYPRALFWSVETATTVGYGDLYPVTLWGRLVAVVVMVAGITSFGLVTAALATWFVGREQERRGHF
- stoichiometry N (SEC [1]): 4

B2: KcsA Y82A channel (natural protein, UniProt P0A334 1-125, looked up)
chain: B1 chain with F67W, Y82A
- stoichiometry N (SEC [2]): 4

B3: KcsA W67F/F103A channel (natural protein, UniProt P0A334 1-125, looked up)
chain: B1 chain with F103A
- binding result (SEC [3]): binds

B4: KcsA W67F channel, locked open (disulfide cross-linked open-state construct) (natural protein, UniProt P0A334 21-125, looked up)
chain: GSALQWRCAGAATVLLVIVLLAGSYLAVLAERGAPGAQLITYPRALFWSVETATTVGYGDLYPVTLWGRLVAVVVMVAGITSFGLVTAALATWFVGQCQQQQGHF
modifications: Cys mutant channels in the cross-linked state (disulfide crosslink between subunits)
- stoichiometry N (SEC [3]): 4

B5: KcsA WT channel trapped with the activation gate open (disulfide cross-linked open-state construct) (natural protein, UniProt P0A334 21-125, looked up)
chain: B4 chain with F47W
modifications: Cys mutant channels in the cross-linked state (disulfide crosslink between subunits)
- binding result (crystal structure): binds

Source: publication PMC8672811 (Journal of molecular biology, 2021)
